From patent US6359194 (Takeda / Millennium, dated 2002) come the findings set out here.

The labels stand for the following.
B1: GAL4 DNA-binding domain fusion to rchd534 (other, UniProt P04386 1-147, looked up)
chain: MKLLSSIEQACDICRLKKLKCSKEKPKCAKCLKNNWECRYSPKTKRSPLTRAHLTEVESRLERLEQLFLLIFPREDLDMILKMDSLQDIKALLTGLFVQDNVNKDAVTDRLASVETDMPLTLRQHRISATSSSEESSNKGQRQLTVSMSRMGKPIETQKSPPPPYSRLSPRDEYKPLDLSDSTLSYTETEATNSLITAPGEFSDASMSPDATKPSHWCSVAYWEHRTRVGRLYAVYDQAVSIFYDLPQGSGFCLGQLNLEQRSESVRRTRSKIGFGILLSKEPDGVWAYNRGEHPIFVNSPTLDAPGGRALVVRKVPPGYSIKVFDFERSGLQHAPEPDAADGPYDPNSVRISFAKGWGPCYSRQFITSCPCWLEILLNNPR
notes: Yeast two-hybrid bait; also called rchd534 bait protein
B2: tchvR4A (GAL4 activation domain fusion to amino acids 25-235 of rchd534) (other, not shown: large carriers)
chain: DEYKPLDLSDSTLSYTETEATNSLITAPGEFSDASMSPDATKPSHWCSVAYWEHRTRVGRLYAVYDQAVSIFYDLPQGSGFCLGQLNLEQRSESVRRTRSKIGFGILLSKEPDGVWAYNRGEHPIFVNSPTLDAPGGRALVVRKVPPGYSIKVFDFERSGLQHAPEPDAADGPYDPNSVRISFAKGWGPCYSRQFITSCPCWLEILLNNPR
notes: Library clone from the human breast two-hybrid library; also called tchvR4A fish protein
B3: rchd534 protein fused to a flag peptide (transfected 293 cells or BAECs) (other, human, UniProt O43541-2 1-235, looked up)
chain: MSRMGKPIETQKSPPPPYSRLSPRDEYKPLDLSDSTLSYTETEATNSLITAPGEFSDASMSPDATKPSHWCSVAYWEHRTRVGRLYAVYDQAVSIFYDLPQGSGFCLGQLNLEQRSESVRRTRSKIGFGILLSKEPDGVWAYNRGEHPIFVNSPTLDAPGGRALVVRKVPPGYSIKVFDFERSGLQHAPEPDAADGPYDPNSVRISFAKGWGPCYSRQFITSCPCWLEILLNNPR
notes: Co-immunoprecipitation construct; also called Smad6; not shown: flag peptide for immunoprecipitation
B4: fchd540 protein fused to a flag peptide (transfected 293 cells or BAECs) (other, human, UniProt O15105 1-426, looked up)
chain: MFRTKRSALVRRLWRSRAPGGEDEEEGAGGGGGGGELRGEGATDSRAHGAGGGGPGRAGCCLGKAVRGAKGHHHPHPPAAGAGAAGGAEADLKALTHSVLKKLKERQLELLLQAVESRGGTRTACLLLPGRLDCRLGPGAPAGAQPAQPPSSYSLPLLLCKVFRWPDLRHSSEVKRLCCCESYGKINPELVCCNPHHLSRLCELESPPPPYSRYPMDFLKPTADCPDAVPSSAETGGTNYLAPGGLSDSQLLLEPGDRSHWCVVAYWEEKTRVGRLYCVQEPSLDIFYDLPQGNGFCLGQLNSDNKSQLVQKVRSKIGCGIQLTREVDGVWVYNRSSYPIFIKSATLDNPDSRTLLVHKVFPGFSIKAFDYEKAYSLQRPNDHEFMQQPWTGFTVQISFVKGWGQCYTRQFISSCPCWLEVIFNSR
notes: Co-immunoprecipitation construct; not shown: flag peptide (different from that on rchd534)
B5: GAL4 transcriptional activation domain alone (other, UniProt P04386 768-881, looked up)
chain: ANFNQSGNIADSSLSFTFTNSSNGPNLITTQTNSQALSQPIASSNVHDNFMNNEITASKIDDGNNSKPLSPGWTDQTAYNAFGITTGMFNTTTMDDVYNYLFDDEDTPPNPKKE
notes: Two-hybrid control; also called GAL4 AD alone; GAL4 AD
B6: tchv03A (GAL4 activation domain fusion to amino acids 17-235 of rchd534) (other, not shown: large carriers)
chain: PYSRLSPRDEYKPLDLSDSTLSYTETEATNSLITAPGEFSDASMSPDATKPSHWCSVAYWEHRTRVGRLYAVYDQAVSIFYDLPQGSGFCLGQLNLEQRSESVRRTRSKIGFGILLSKEPDGVWAYNRGEHPIFVNSPTLDAPGGRALVVRKVPPGYSIKVFDFERSGLQHAPEPDAADGPYDPNSVRISFAKGWGPCYSRQFITSCPCWLEILLNNPR
notes: Library clone from the human breast two-hybrid library; also called tchv03A fish protein

For data set [1], the target named is T1, GAL4 activation domain fusion to SV40 (SV40, UniProt P03070 84-708).
T1 construct: Two-hybrid control
Put plainly: yeast two-hybrid mating assay (HIS3 and lacZ reporters). The source says:
(§1) Yeast expression plasmids encoding the GAL4 DNA-binding domain either alone or fused in frame to fchd540, rchd534, Drosophilia MAD, DPC4, or p53 were transformed into MATa two-hybrid screening strain HF7c. Yeast expression plasmnids encoding the GAL4 transcriptional activation domain alone and GAL4 activation domain fusions to rchd534 and SV40 were transformed into MATα two-hybrid screening strain Y1 87. p53 and SV40 interact with each other and should not interact with the experimental proteins. The HF7c transformants were propagated as stripes on semisolid synthetic complete medium lacking L-tryptophan and the Y187 transformants were grown as stripes on semisolid synthetic complete medium lacking L-leucine. Both sets of stripes were replica plated in the form of a grid onto a single rich YPAD plate and the haploid strains of opposite mating types were allowed to mate overnight at 30° C. The yeast strains on the mating plate were then replica plated to a synthetic complete plate lacking L-leucine and L-tryptophan to select for diploids and incubated at 30° C. overnight. Diploid strains on the synthetic complete plate lacking L-leucine and L-tryptophan were replica plated to a synthetic complete plate lacking L-leucine, L-tryptophan, and L-histidine to assay HIS3 expression and a paper filter on a synthetic complete plate lacking L-leucine and L-tryptophan. The next day the paper filter was subjected to the paper filter beta-galactosidase assay to measure expression of the lacZ reporter gene. HIS3 expression was scored after 3 days of growth at 30° C.
(§2) It was confirmed that these rchd534 cDNAs encode proteins that physically interact specifically with fchd540. Yeast expression plasmids encoding the GAL4 DNA-binding domain either alone or fused in frame to fchd540, rchd534, Drosophila MAD, DPC4, and p53 were transformed into MATa two-hybrid screening strain HF7c. Yeast expression plasmids encoding the GAL4 transcriptional activation domain (GAL4 AD) alone and GAL4 activation domain fusions to tchv03a, tchvR4A and SV40 were transformed into MATα two-hybrid screening strain Y1 87. p53 and SV40 interact with each other and should not interact with the experimental proteins. The HF7c transformants were propagated as stripes on semi-solid synthetic complete medium lacking […].

The target of data set [2] is B1. Described as above.
From the text: as §1, §2

The target in data set [3] is T2, GAL4 DNA-binding domain fusion to Drosophila MAD (Drosophila, UniProt P04386 1-147; P42003 1-455, limits assumed).
T2 construct: Yeast two-hybrid bait; also called Dros; MAD; MAD bait protein
Described as above.
From the text: as §1, §2

For data set [4], the target named is T3, GAL4 DNA-binding domain fusion to DPC4 (UniProt P04386 1-147; Q13485 1-552, limits assumed).
T3 construct: Yeast two-hybrid bait; also called DPC4 bait protein
The data set is described as above.
From the text: as §1, §2

The target of data set [5] is B4. The data set can be described thus: co-immunoprecipitation, BAECs against 293 cells, equal amounts of protein. Here is the method: (§3) The interaction of the rchd534 and fchd540 proteins, observed in yeast cells as described above, was tested in mammalian endothelial cell tissue culture. Either bovine aortic endothelial cells (BAECs) or 293 cells (human embryonic kidney cells, ATCC Accession No. CRL-1573) were transfected with constructs encoding both the rchd534 and fchd540 proteins, each fused to a different flag peptide allowing for specific immunoprecipitation. […] The co-immunoprecipitation of rchd534 and fchd540 further supports that these proteins interact in human cells that are physiologically relevant to cardiovascular disease.
The ability of the rchd534 and fchd540 proteins to interact with themselves and with other protein members of the TGF-β signalling pathway (MADR1, MADR2, DPC4, TbR1, TSR1, ActR1b, ALK3, ALK6), was tested using this co-inmunoprecipitation method. Each gene was transfected alone and in various combinations with other TGF-β pathway genes in either 293 cells or BAECs. The rchd534 protein formed homodimers in 293 cells and BAECs. […] As mentioned above, the rchd534 and fchd540 proteins formed heterodimers in 293 cells and BAECs. This interaction is about 50 fold stronger in BAECs than 293 cells based on equal amounts of protein.

Data set [6] deals with the molecule itself. Put plainly: co-immunoprecipitation from transfected 293 cells or BAECs. Here is the method: as §3
In data set [7] the target is T4, GAL4 DNA-binding domain alone (UniProt P04386 1-147).
T4 construct: Two-hybrid control
Put plainly: yeast two-hybrid mating assay (HIS3 and lacZ reporters).
From the text: as §1, §2

The target in data set [8] is T5, GAL4 DNA-binding domain-fchd540 fusion (human, UniProt P04386 1-147; O15105 1-426).
T5 construct: Yeast two-hybrid bait; also called fchd540 bait protein; pGBT9-fchd540
Described as above.
From the text: as §1, §2

As for B1, the binding result in data set [1] is on record as “no binding”.

In the case of B2, the binding result in data set [2], in data set [3] and in data set [4] was “no binding” in each case.

B3: the “fold stronger interaction in BAECs than in 293 cells” value in data set [5] was about 50 fold.

Consider B4, for which, in data set [6], the binding result is recorded as “no binding”.

Take B5: the binding result in data set [7], in data set [2], in data set [3], in data set [8] and in data set [4] was “no binding” each time.

Turning to B6, the binding result in data set [2], in data set [3] and in data set [4] was “no binding” in each case.
